In PMC3416856 one finds half-maximum concentration of KaiA for the phosphorylation of KaiC (3.5 µM) data, which are given here for one molecule.

In this experiment the target is T1, KaiC of unphosphorylated initial condition (Synechococcus elongatus) (UniProt Q79PF4).
T1 sequence (chain, unphosphorylated at the start of the incubation): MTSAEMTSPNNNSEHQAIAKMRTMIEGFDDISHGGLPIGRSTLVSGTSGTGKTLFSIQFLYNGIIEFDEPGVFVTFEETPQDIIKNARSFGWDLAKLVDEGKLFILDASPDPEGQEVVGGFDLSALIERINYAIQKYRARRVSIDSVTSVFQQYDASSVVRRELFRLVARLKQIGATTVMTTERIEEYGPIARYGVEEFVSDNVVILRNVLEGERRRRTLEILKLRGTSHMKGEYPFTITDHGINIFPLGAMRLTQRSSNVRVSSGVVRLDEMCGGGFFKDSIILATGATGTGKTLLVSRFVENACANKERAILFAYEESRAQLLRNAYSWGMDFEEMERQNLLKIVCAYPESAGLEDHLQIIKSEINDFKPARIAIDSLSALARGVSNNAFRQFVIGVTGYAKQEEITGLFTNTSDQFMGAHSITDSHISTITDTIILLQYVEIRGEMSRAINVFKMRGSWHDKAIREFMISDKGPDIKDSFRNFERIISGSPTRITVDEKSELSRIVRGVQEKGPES

B1: wild type KaiA (natural protein)
chain: MLSQIAICIWVESTAILQDCQRALSADRYQLQVCESGEMLLEYAQTHRDQIDCLILVAANPSFRAVVQQLCFEGVVVPAIVVGDRDSEDPDEPAKEQLYHSAELHLGIHQLEQLPYQVDAALAEFLRLAPVETMADHIMLMGANHDPELSSQQRDLAQRLQERLGYLGVYYKRDPDRFLRNLPAYESQKLHQAMQTSYREIVLSYFSPNSNLNQSIDNFVNMAFFADVPVTKVVEIHMELMDEFAKKLRVEGRSEDILLDYRLTLIDVIAHLCEMYRRSIPRET
On to B1, for which the half-maximum concentration of KaiA for the phosphorylation of KaiC (3.5 µM) at 16 hr, 30°C (SDS-PAGE densitometry, sigmoid fit), against that for the highly phosphorylated initial condition came to 5 fold.
